Data on two molecules can be found in PMC8751651 (ACS Omega, 2021).

This assay has as its target Recombinant SARS-CoV-2 spike RBD protein (SARS-CoV-2, UniProt P0DTC2). The assay is described as follows: SPR. For orientation: Surface plasmon resonance follows binding to a sensor surface in real time, without labels.

Where no end group is shown, it is not given here. The star is where a group is joined. Biotin = O=C1N[C@H]2[C@H](CS[C@H]2CCCCC(=O)*)N1; Cam = NC(=O)C*

B1: biotinylated peptide 6 (second synthesis) (peptide)
peptide: Biotin-SC(Cam)FDFLNWASCDGGGS
In the case of B1, the Kd (usually the concentration at which binding is half-saturated) is roughly 19 µM.

B2: biotinylated peptide 1 (second synthesis) (peptide)
peptide: Biotin-SCFDFLNWASCDGGGS
modifications: cysteine pairing not given here
For B2, the Kd was found to be 5.8 µM.
